From paper PMC12499481, “Design of the Hydrophobic Core of Self‐Assembling Peptide Fibrils for Enhanced Neural Regeneration” (Small Science, 2025)

Tests used:
[1] = target: the molecule itself; test: dynamic light scattering; self-assembly; peptide diluted from 10 mM DMSO stock into DPBS (6 μM to 1 mM), 24 h incubation, room temperature; derived count rate below 5 kcps defined as no aggregation
[2] = target: the molecule itself; test: conversion rate assay (3 kDa centrifugal filtration, fluorescamine fluorescence); self-assembly; 1 mM peptide incubated 24 h, monomers separated from fibers at 12 000 g for 60 min at 4 °C; filtrated against nonfiltrated fluorescence

Row | Protein | aggregation concentration [1] [µM] | conversion rate [2] [%]
1 | KIKIQIN (designed variant of enhancing factor-C (EF-C), pattern KXKXQXN with X = I; self-assembling peptide; made on Fmoc-Asn(Trt) Wang resin; also called KIKIQIN; source: synthetic peptide (Fmoc-SPPS, preparative RP-HPLC, purity ≥ 90 %)) [EF‐CI] | ≤ 100 | 93
2 | KWKWQWN (designed variant of enhancing factor-C (EF-C), pattern KXKXQXN with X = W; self-assembling peptide; made on Fmoc-Asn(Trt) Wang resin; also called KWKWQWN; source: synthetic peptide (Fmoc-SPPS, preparative RP-HPLC, purity ≥ 90 %)) [EF‐CW] | ≤ 100 | 94
3 | KFKFQFN (designed variant of enhancing factor-C (EF-C), pattern KXKXQXN with X = F; self-assembling peptide; made on Fmoc-Asn(Trt) Wang resin; also called KFKFQFN; source: synthetic peptide (Fmoc-SPPS, preparative RP-HPLC, purity ≥ 90 %)) [EF‐CF] | ≤ 100 | 94
4 | KLKLQLN (designed variant of enhancing factor-C (EF-C), pattern KXKXQXN with X = L; self-assembling peptide; made on Fmoc-Asn(Trt) Wang resin; also called KLKLQLN; source: synthetic peptide (Fmoc-SPPS, preparative RP-HPLC, purity ≥ 90 %)) [EF‐CL] | ≤ 100 | 73
5 | KVKVQVN (designed variant of enhancing factor-C (EF-C), pattern KXKXQXN with X = V; self-assembling peptide; made on Fmoc-Asn(Trt) Wang resin; also called KVKVQVN; source: synthetic peptide (Fmoc-SPPS, preparative RP-HPLC, purity ≥ 90 %)) [EF‐CV] | ≤ 100 | 62
